For one experiment, the system named is scFv-P2Y6. The experiment in a line: Activation of scFv-P2Y6 in HEK293 cells, aequorin luminescence. The experiment is classed as cell-based, human. As to conditions: non-anchored agonists. The source says: A fusion protein was constructed between a single chain antibody against fluorescein (Boder et al. (2000) Proc. Natl. Acad. Sci. USA 97:10701-5) (docking domain) and the human P2Y6 receptor (GenBank accession number: NP_004145) (active domain). The target fusion protein, termed scFv-P2Y6, was co-transfected with the calcium-sensitive luminescent protein aequorin into HEK293 cells. After two days, the transfected cells were pre-loaded for two hours with the aequorin substrate coelenterazine (Molecular Probes) and then various amounts of UDP, UTP or ATP were added immediately followed by measurement of luminescence (FIG. 5A). The activation profile of these three agonists on the fusion protein closely mimicked their activation of the unfused P2Y6 receptor (not shown). […] In contrast to ATP alone, an anchored compound, a fluorescein-ATP conjugate (FITC-ATP; Perkin-Elmer), was able to activate the scFv-P2Y6 receptor at low concentrations (FIG. 5B) with a half-maximal stimulation occurring at about 10 nM.

For another experiment, the system named is melanocortin receptors. The conditions noted are these: cited from earlier work.
The target in the next experiment is T1, FcR-MC4R (Homo sapiens, UniProt P12314+P32245).
T1 construct: extracellular domain (residues 1-292, with its own signal peptide) of human Fc-gammaR1 = CD64 (NM_000566); expressed in transfected cells; host or cells: HEK293
T1 sequence (P12314+P32245 fused): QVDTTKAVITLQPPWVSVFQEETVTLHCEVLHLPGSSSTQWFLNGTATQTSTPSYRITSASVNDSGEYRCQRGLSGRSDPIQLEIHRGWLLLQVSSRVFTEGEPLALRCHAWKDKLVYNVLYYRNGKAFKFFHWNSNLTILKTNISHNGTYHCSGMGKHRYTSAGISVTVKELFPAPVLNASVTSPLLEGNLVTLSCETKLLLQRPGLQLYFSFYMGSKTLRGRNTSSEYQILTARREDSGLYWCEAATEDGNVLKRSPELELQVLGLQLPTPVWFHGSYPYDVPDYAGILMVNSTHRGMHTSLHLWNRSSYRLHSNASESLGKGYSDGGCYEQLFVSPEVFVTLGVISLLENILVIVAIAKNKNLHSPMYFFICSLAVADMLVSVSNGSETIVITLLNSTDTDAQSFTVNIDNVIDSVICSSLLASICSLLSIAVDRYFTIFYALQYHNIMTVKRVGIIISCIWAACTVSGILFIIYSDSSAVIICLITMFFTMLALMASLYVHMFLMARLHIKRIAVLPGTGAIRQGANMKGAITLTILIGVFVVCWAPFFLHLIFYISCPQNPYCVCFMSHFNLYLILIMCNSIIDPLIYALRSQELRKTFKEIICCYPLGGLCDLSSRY
The experiment is described as follows: Inhibition by AGRP of FcR-MC4R activation, CRE-luciferase reporter. The experiment is classed as cell-based. As for the experimental part: Activation of FcR-MC4R was assayed 6 hours after compound addition using a co-transfected CRE-luciferase construct (pCRE-Luc; Stratagene) and measuring luminescence after lysis and addition of the luciferase substrate (Tropix Luciferase Assay Kit).

Experiment [1] addresses FcR-MC4R fusion protein (human). The experiment in a line: cell-based or functional assay.
Experiment [2] relates to Alpha1-mc4r, Alpha2-MC4R, OGH-MC4R and HCG-MC4R. The experiment in a line: Glycoprotein hormone subunit-based extracellular 2-hybrid screen, CRE-luciferase reporter in HEK293 cells. The experiment is classed as cell-based. As to conditions: relative to no ligand control; two days after transfection. As for the experimental part:
Signal sequences were included at the beginning of each construct.
Two days after transfection, the activity of the target fusion protein was measured by assaying luciferase activity as relative light units (Y axis, FIG. 7) on a luminometer.
Background: In a reporter assay the amount or activity of a reporter protein is the signal.

Experiment [3] deals with FcR-MC4R fusion protein (human). The experiment in a line: cell-based or functional assay. The source holds these as a separate data set.
Chain of FcR-MC4R fusion protein (human) (P12314 other isoform, or with tags, fused parts or gaps, form in doubt): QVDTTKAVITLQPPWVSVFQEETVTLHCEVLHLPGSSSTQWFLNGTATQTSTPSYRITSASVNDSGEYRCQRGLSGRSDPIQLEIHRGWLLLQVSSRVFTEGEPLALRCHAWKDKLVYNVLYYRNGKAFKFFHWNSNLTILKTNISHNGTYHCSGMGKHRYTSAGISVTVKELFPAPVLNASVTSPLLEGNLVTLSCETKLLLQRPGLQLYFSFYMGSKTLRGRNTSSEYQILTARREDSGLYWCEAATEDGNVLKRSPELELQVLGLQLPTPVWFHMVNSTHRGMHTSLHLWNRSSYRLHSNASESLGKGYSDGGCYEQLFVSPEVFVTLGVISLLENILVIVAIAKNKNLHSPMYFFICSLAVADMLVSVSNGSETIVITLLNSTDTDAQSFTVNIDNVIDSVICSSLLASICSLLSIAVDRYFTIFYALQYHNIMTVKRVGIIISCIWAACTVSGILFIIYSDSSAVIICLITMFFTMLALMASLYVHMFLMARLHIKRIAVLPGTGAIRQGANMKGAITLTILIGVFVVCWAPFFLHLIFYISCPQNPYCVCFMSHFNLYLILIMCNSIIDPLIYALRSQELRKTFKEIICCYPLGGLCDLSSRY

No end group written: not given here. A value given as a limit tells only on which side of the number the result lay.

Chain of Alpha1-mc4r, Alpha2-MC4R, OGH-MC4R and HCG-MC4R (P32245 whole entry): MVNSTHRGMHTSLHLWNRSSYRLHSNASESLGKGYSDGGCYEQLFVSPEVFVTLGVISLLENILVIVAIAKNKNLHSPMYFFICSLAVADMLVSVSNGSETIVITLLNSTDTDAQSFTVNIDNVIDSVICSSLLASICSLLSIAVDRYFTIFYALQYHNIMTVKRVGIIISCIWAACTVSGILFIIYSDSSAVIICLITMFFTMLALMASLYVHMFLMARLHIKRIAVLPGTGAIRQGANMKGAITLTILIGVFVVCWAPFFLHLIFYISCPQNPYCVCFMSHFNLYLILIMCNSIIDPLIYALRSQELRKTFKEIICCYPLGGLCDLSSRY

As for `Nc1ncnc2c1ncn2[C@@H]1O[C@H](COP(=O)(O)OP(=O)(O)OP(=O)(O)O)[C@@H](O)[C@H]1O` [ATP], in the experiment with scFv-P2Y6, the “activation of scFv-P2Y6 (relative potency in words)” value is “required much higher concentrations”. The same measure, in the same setting: the result for `O=c1ccn([C@@H]2O[C@H](COP(=O)(O)OP(=O)(O)O)[C@@H](O)[C@H]2O)c(=O)[nH]1` [UDP] reads “most potent activator”; that for `O=c1ccn([C@@H]2O[C@H](COP(=O)(O)OP(=O)(O)OP(=O)(O)O)[C@@H](O)[C@H]2O)c(=O)[nH]1` [UTP], “required much higher concentrations”. In the case of His Phe Arg Trp [HFRW], in the experiment with melanocortin receptors, the “activation of melanocortin receptors” value is given as “fully activate melanocortin receptors, but only at very high concentrations”.

Take “agouti-related protein (SSRRCVRLHESCLGQQVPCCDPCATCYCRFFNAFCYCRKLGTAMNPCSRT; UniProt O00253 83-132, looked up) [AGRP, known antagonist of the MC4 receptor]”: the “effect of increasing amounts of inhibitor on stimulation by HFRW-Fc” value with FcR-MC4R (FcR-MC4R activated with anchored agonist HFRW-Fc) was “dramatically reduce the maximal stimulation levels”. Also, in the experiment with FcR-MC4R (FcR-MC4R activated with natural agonist α-MSH), the “effect of increasing amounts of inhibitor on α-MSH dose response” value is given as “shift the dose response curve of α-MSH progressively to the right”. The molecule “α-MSH-Fc (from UniProt P01189 138-150) (Fc fusion)” showed an amount of compound for half-maximal stimulation of MC4R (CRE-luciferase) in experiment [1] of 100 fold less.

B1: alpha2: glycoprotein hormone subunit alpha2 as anchor component fused to HFRW via a 13 amino acid spacer (protein)
chain: QEAVIPGCHLHPFNVTVRSDRQGTCQGSHVAQACVGHCESSAFPSRYSVLVASGYRHNITSVSQCCTISGLKKVKVQLQCVGSRREELEIFTARACQCDMCRLSRY
B1: in experiment [2], the “binding between anchor and docking glycoprotein hormone subunits, seen as increased MC4R activity” value is “binds to OGH, hCG, and itself”.

B2: HFRW-Fc (Fc fusion, part only; not given: Fc and linker, not shown: a dimerising Fc or GST)
chain, part: HFRW-Fc
modifications: also: Fc junction, isotype and linker not given here
In experiment [3], B2 displayed a half maximal level of the response (activation of MC4R, CRE-luciferase reporter, transiently transfected HEK293 cells) of less than 1 nM.

(Values after patent publication US20040086946A1, “Methods of isolation of active compounds and activated targets” (priority 2002, published 2004).)
